Our source for the limit of detection (LOD) for the antibody, PPR-based immunoassay (absorbance values is patent US20240151714A1.

In assay [1] the target is hCG-first DNA conjugate (human) (UniProt P01215). Nature of the assay: cell-based or functional assay.
The target of assay [2] is hCG-second DNA conjugate (human) (UniProt P01215). In words: cell-based or functional assay.
Sequence of hCG-second DNA conjugate (human) (P01215 other isoform, or with tags, fused parts or gaps limits assumed, chain 1 of 2, other chains not shown): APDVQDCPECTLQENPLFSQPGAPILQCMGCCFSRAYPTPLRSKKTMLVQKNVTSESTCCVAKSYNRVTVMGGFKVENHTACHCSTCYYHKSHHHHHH

Sequence of hCG-first DNA conjugate (human) (P01215 other isoform, or with tags, fused parts or gaps limits assumed, chain 1 of 2, other chains not shown): as above

Take “hCG monoclonal antibody (MA5-14680; Thermo Fisher Scientific)”: the limit of detection (LOD) for the antibody, PPR-based immunoassay (absorbance at 405 nm) in assay [1] and in assay [2] was 9.83 pM each time.
